# From patent US20220118080A1 (MAYO FOUNDATION FOR MEDICAL EDUCATION AND RESEARCH, published 2022)
# Like-named read-outs stand apart in the source and are kept apart here.
# T1: SLAM-Fc (UniProt Q13291 21-237)
# T1 sequence: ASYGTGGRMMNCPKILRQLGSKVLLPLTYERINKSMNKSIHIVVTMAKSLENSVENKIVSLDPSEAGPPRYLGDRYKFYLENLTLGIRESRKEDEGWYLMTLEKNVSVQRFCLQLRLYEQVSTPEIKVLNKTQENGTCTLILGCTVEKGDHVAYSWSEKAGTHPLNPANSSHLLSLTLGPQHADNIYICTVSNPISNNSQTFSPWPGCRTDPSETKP
# B1: recombinant soluble MeV-H Δ8 (other)
# chain: RLHRAAIYTAEIHKSLSTNLDVTNSIEHQVKDVLTPLFKIIGDEVGLRTPQRFTDLVKFISDKIKFLNPDREYDFRDLTWCINPPERIKLNYDQYCADVAAEELMNALVNSTLLETRTTNQFLAVSKGNCPGPTTIRGQFSNMSLSLLDLYLSRGYNVSSIVTMTSQGMYGGTYLVGKPDLNSKGSELSQPSMYRVFEVGVIRNPGLGAPVFHMTNYFEQPISKDLSNCMVALGELKLAALCHRGDSITIPCRGSGKGVSFQLVKLGVWKSPTDMHSWVPLSTDDPVIDRLYLSSHRGVITDNQANWAVPTTRTDDKLQKETCFQQACKGKIQALCENLEWAPLKDSRIPSYGVLSVNLSLAAEPKIKIASGFGPLITHGSGMDLYKSNHNNVYWLTIPPMKNLALGVINTLKWIPRLKVSPYLFTVPIEEADEDCRAPTYLPAEVTGDVKLSSNLVILPGQDLQYVLATYDTSGVEHAVVYYVYSPGGSFSYVYPFRLPIKGTPIELQVECFTWAQRLWCRHFCVLADSESGGHLTHSGMVGMEVSCTVNREDEANRR
# B2: CD46-Fc (Fc fusion)
# chain: CEEPPTFEAMELIGKPKPYYEIGERVDYKCKKGYFYIPPLATHTICDRNHTWLPVSDDACYRETCPYIRDPLNGQAVPANGTYEFGYQMHFICNEGYYLIGEEILYCELKGSVAIWSGKPPICEKVLCTPPPKIKNGKHTFSEVEVFEYLDAVTYSCDPAPGPDPFSLIGESTIYCGDNSVWSRAAPECKVVKCRFPVVENGKQISGFGKKFYYKATVMFECDKGFYLDGSDTIVCDSNSTWDPPVPKCLKVLPPSSTKPPALSHSVSTSSTTKSPASSASGPRPTYKPPVSNY
# notes: range 35-328
# How the values were obtained:
# [1] = molecular target: recombinant soluble MeV-H A (vaccine strain) (measles virus)
# SLAM-Fc [2] = molecular target: T1, SLAM-Fc; assay: ELISA, receptor-Fc on plastic-bound MeV-H
# CD46-Fc = molecular target: B2; assay: ELISA, receptor-Fc titrated on plastic-bound MeV-H; one-site fit, apparent Kd (half-saturating concentration)
# SLAM-Fc [3] = molecular target: T1, SLAM-Fc; assay: ELISA, receptor-Fc titrated on plastic-bound MeV-H; one-site fit, apparent Kd
# [4] = molecular target: B1; assay: ELISA, receptor-Fc titrated on plastic-bound MeV-H
# [5] = molecular target: recombinant soluble MeV-H A (vaccine strain) (measles virus); assay: ELISA, receptor-Fc titrated on plastic-bound MeV-H; one-site fit, apparent Kd
# [6] = molecular target: recombinant soluble MeV-H A (vaccine strain) (measles virus); assay: ELISA, receptor-Fc titrated on plastic-bound MeV-H; one-site fit
molecule,measurement,setting,value
nectin-4-Fc (from UniProt Q96NY8 32-349) (Fc fusion),Bmax,[1],1.56
CD46-Fc (from UniProt P15529 35-328) (Fc fusion),Kd,[1],819 µM
B1,binding result,SLAM-Fc [2],no binding
same,Kd,CD46-Fc,0.00019 µM
recombinant soluble MeV-H H1 (other) RLHRAAIYTAEIHKSLSTNLDVTNSIEHQVKDVLTPLFKIIGDEVGLRTPQRFTDLVKFISDKIKFLNPDREYDFRDLTWCINPPERIKLNYDQYCADVAAEELMNALVNSTLLETRTTNQFLAVSKGNCSGPTTIRGQFSNMSLSLLDLYLSRGYNVSSIVTMTSQGMYGGTYLVEKPNLNSKGSELSQLSMYRVFEVGVIRNPGLGAPVFHMTNYFEQPISKDLSNCMVALGELKLAALCHGGDSITIPYQGSGKGVSFQLVKLGVWKSPTDMHSWVPLSTDDPVIDRLYLSSHRGVITDNQANWAVPTTRTDDKLRMETCFQQACKGKIQALCENLEWAPLKDSRIPSYGVLSVDLSLAAEPKIKIASGFGPLITHGSGMDLYKSNHNNVYWLTIPPMKNLALGVINTLEWIPRLKVSPNLFTVPIKEAGEDCHAPTYLPAEVDGDVKLSSNLVILPGQDLQYVLATYDTSRVEHAVVYYVYSPSRSFSYFYPFRLPIKGTPIELQVECFTWAQRLWCRHFCVLADSESGGHLTHSGMVGMEVSCTVNREDEANRR,Kd,SLAM-Fc [3],10.4 µM
B2,fold better binding than MeV-H A and H1,[4],~4000 fold
SLAM-Fc (Fc fusion) ASYGTGGRMMNCPKILRQLGSKVLLPLTYERINKSMNKSIHIVVTMAKSLENSVENKIVSLDPSEAGPPRYLGDRYKFYLENLTLGIRESRKEDEGWYLMTLEKNVSVQRFCLQLRLYEQVSTPEIKVLNKTQENGTCTLILGCTVEKGDHVAYSWSEKAGTHPLNPANSSHLLSLTLGPQHADNIYICTVSNPISNNSQTFSPWPGCRTDPSETKP,Kd,[5],2.68 µM
same,Bmax,[6],2.09
